Assay results as given in the supplement of paper PMC10126150.
± gives the standard deviation of the averaged measurements.

System: ATP
Assay: switch fluorescence ratio, 500 uM ATP over buffer (Cy3 cluster intensity, sum of 5 cycles each) (fold (ratio)); higher = stronger signal-on switching upon ATP binding; sequences stand for … in TCGTCGGCAGCGTCAGATGTGTATAAGAGACAGTTTTTTTTTTTTTTTTTTTTTTTTT…TC
Conditions: aptamer strand: ATP DNA aptamer (quencher-CACCTGGGGGAGTATTGCGGAGGAAGG + anchor), 100 nM annealed; ATP concentration: 500 uM
How it was run: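 Clusters with intensities outside 100-1000 RFU were excluded. The remaining Cy3-labelled switching-strand clusters on a modified Illumina MiSeq flow-cell had been annealed to 100 nM quencher-labelled ATP aptamer and imaged in selection buffer, then after 15 min with 500 uM ATP at 22 °C, for five cycles separated by NaOH stripping and re-annealing. The fluorescence ratio, averaged per switch-domain sequence, is each cluster's summed target-cycle Cy3 intensity over its summed buffer-cycle Cy3 intensity.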
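Further: ATP exposure 15 min at 22 °C before imaging.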

Sequence	switch fluorescence ratio
GCTGTAACTG	1.08 ± 0.017
TTACTTACGA	1.4167 ± 0.00061
GAGTGGCTCT	0.968 ± 0.026
GATGGGATGC	1.07 ± 0.071
TGCAGGGAGG	1.02 ± 0.0064
GAAGTAGGTG	1.02 ± 0.012
GGAGGCGGGA	1.02 ± 0.045
TTCCTGAAAA	0.981 ± 0.016
GGACAAGCGT	0.987 ± 0.021
TAATGACTCA	1.034 ± 0.008
TAAAAGATTT	1.01 ± 0.037
CCTTATGCCA	1.09 ± 0.061
TGAGGGCAAG	1.02 ± 0.022
TTTGACTAAG	1.06 ± 0.099
ATTTTTGGAG	0.9792 ± 0.0053
TTTACTTGCG	0.9759 ± 0.0038
ATGACTGGAG	0.9896 ± 0.0076
TGGAATGGGG	1 ± 0.037
GCGTAAAGAT	0.992 ± 0.034
CGGCGAATCC	1.033 ± 0.0088
ATTATGAATC	1.02 ± 0.078
AAATACCCAG	1.04 ± 0.034
ATGAGGGTCG	0.993 ± 0.014
CTAGTAGGGG	0.984 ± 0.022
CGTGGGTTCG	0.961 ± 0.025

Sequence	switch fluorescence ratio
TATATGTCGT	0.99 ± 0.01
TCGGGGAAAT	1.01 ± 0.023
AGGGGAGTAG	0.99 ± 0.022
ATAAGGGTCC	1.04 ± 0.066
GATATTTTGA	1.02 ± 0.019
GTGGTAAGGG	0.972 ± 0.034
TTACGAACCG	1.23 ± 0.026
AGGTGAAATC	1.26 ± 0.34
AAGAAATTAC	1.06 ± 0.028
GGTTACGGGG	1.01 ± 0.013
AAAGTATTTC	1.02 ± 0.015
ACTTCATGGG	1.01 ± 0.029
ATTGTTTGGG	1.03 ± 0.019
AATCGGGACC	0.9905 ± 0.002
TTTTCATCTG	1.03 ± 0.098
TTATTTAGCA	0.987 ± 0.038
TAAGTATGAC	0.982 ± 0.032
GCTTTGGGCA	0.9992 ± 0.0067
AGTATGGTGC	0.991 ± 0.029
CGGACGTTGG	0.973 ± 0.045
GGTCTAAGGG	0.976 ± 0.036
CTTTGAAGAG	1.017 ± 0.0058
TGTTTATTCC	1.11 ± 0.087
TGAAACGGAA	1.15 ± 0.079
TTATGCTTGG	0.976 ± 0.031

Sequence	switch fluorescence ratio
GAACATTGGT	0.998 ± 0.042
ATGCGGGGTC	1.03 ± 0.053
CGGTAACTGG	1.01 ± 0.048
TTCCATATTT	1.02 ± 0.026
GGGTGGTGGA	1.01 ± 0.019
GAGGAGTGAA	0.9973 ± 0.0067
AGATGGGTTT	1.01 ± 0.044
ATACTTTGGT	0.9944 ± 0.0018
CGATTAGTTG	0.998 ± 0.032
AGGGAGGGGG	1.01 ± 0.094
TTCTGTCCAC	1.03 ± 0.013
GGGTGTGTGT	1.02 ± 0.017
TTTTCGGGGT	0.986 ± 0.025
AAAAGGGGAG	1.14 ± 0.16
AGGCGGATGG	0.9853 ± 0.0062
GTAGTAAGGC	2.23 ± 0.54
TAAGAGGGGC	1 ± 0.037
ACTTAATCGT	1.02 ± 0.045
ATGTGGGTTG	1.03 ± 0.022
TTGTCGGTCT	0.972 ± 0.018
TTGGTCGTAC	1.03 ± 0.015
TTCGTTCGAA	1.03 ± 0.067
GTACGAAGTT	0.973 ± 0.013
TTAAGAAGCC	0.987 ± 0.049
TAATAGTTAC	1.01 ± 0.041

Sequence	switch fluorescence ratio
AAGTTAAAGG	1.03 ± 0.077
ACCATGTAAG	0.988 ± 0.035
AATAATTTAA	0.995 ± 0.021
TTGGGCGGGT	0.994 ± 0.041
TGGGCAACCG	1.02 ± 0.065
GGGGCGGGTT	1.02 ± 0.04
CGATATATTG	0.988 ± 0.013
AAAAGGTTAC	1.06 ± 0.033
GGGGGCAGGT	1.03 ± 0.039
CCATTGTAAT	1.1 ± 0.024
ATGAATAGAG	1.02 ± 0.031
ACGGGCTAAC	1.09 ± 0.14
GCAGTTGTGT	0.9941 ± 0.0058
AGGGACTAGA	1 ± 0.025
TTTTGGGGTT	0.997 ± 0.043
TTAACGGTCG	1.02 ± 0.072
CCAGTTTCTG	1.02 ± 0.012
AGGTTGGTTA	0.984 ± 0.029
AGGAAGTGGG	0.959 ± 0.028
TGTCCAGCTC	1.49 ± 0.65
GATTGAACGG	0.997 ± 0.0086
TGCTTTTTGT	1.02 ± 0.046
AGGGACTGAC	1.24 ± 0.075
TTTGCCGAGG	1.01 ± 0.015
CGATGATGGA	0.999 ± 0.017
